Test results taken from IntAct's records for PubMed 19909340.

B1: Broad substrate specificity ATP-binding cassette transporter ABCG2 (Homo sapiens), Q9UNQ0 (parent)
chain: MSSSNVEVFIPVSQGNTNGFPATASNDLKAFTEGAVLSFHNICYRVKLKSGFLPCRKPVEKEILSNINGIMKPGLNAILGPTGGGKSSLLDVLAARKDPSGLSGDVLINGAPRPANFKCNSGYVVQDDVVMGTLTVRENLQFSAALRLATTMTNHEKNERINRVIQELGLDKVADSKVGTQFIRGVSGGERKRTSIGMELITDPSILFLDEPTTGLDSSTANAVLLLLKRMSKQGRTIIFSIHQPRYSIFKLFDSLTLLASGRLMFHGPAQEALGYFESAGYHCEAYNNPADFFLDIINGDSTAVALNREEDFKATEIIEPSKQDKPLIEKLAEIYVNSSFYKETKAELHQLSGGEKKKKITVFKEISYTTSFCHQLRWVSKRSFKNLLGNPQASIAQIIVTVVLGLVIGAIYFGLKNDSTGIQNRAGVLFFLTTNQCFSSVSAVELFVVEKKLFIHEYISGYYRVSSYFLGKLLSDLLPMRMLPSIIFTCIVYFMLGLKPKADAFFVMMFTLMMVAYSASSMALAIAAGQSVVSVATLLMTICFVFMMIFSGLLVNLTTIASWLSWLQYFSIPRYGFTALQHNEFLGQNFCPGLNATGNNPCNYATCTGEEYLVKQGIDLSPWGLWKNHVALACMIVIFLTIAYLKLLFLKKYS

Variants of: B1
Conditions: with ubc_human UBC

**Q.** For N596Q, which “effect of a mutation on the interaction” value is on record?
**A.** increasing interaction
